From patent US20170267771A1 (BIONOVION HOLDING B V, published 2017) come the findings set out here.

For experiment [1], the target named is human CD27, full length, expressed on cells (CHO-K1.CD27, MCF-7, HEK293T, human T cells) (human) (UniProt P26842). Nature of the experiment: competition cell ELISA on CHO-K1.CD27 cells; competitor recombinant CD70 fusion protein (0.5 ug/ml). For orientation: ELISA stands for enzyme-linked immunosorbent assay.
The target of experiment [2] is recombinant soluble hCD27-Fc fusion protein (rhCD27/Fc chimera, R&D systems cat. no. 382-CD) (human) (UniProt P26842). Briefly: competition cell ELISA: rhCD27-Fc (0.5 ug/ml) preincubated with antibody, binding to CHO-K1.CD70 cells.
Experiment [3] deals with human CD27, full length, expressed on cells (CHO-K1.CD27, MCF-7, HEK293T, human T cells) (human) (UniProt P26842). Nature of the experiment: cell ELISA on CHO-K1.hCD27 cells.
Experiment [4] addresses recombinant soluble hCD27-Fc fusion protein (rhCD27/Fc chimera, R&D systems cat. no. 382-CD) (human) (UniProt P26842). Briefly: competition cell ELISA (CHO-K1.CD70 competition assay): antibody dilutions mixed with rhCD27-Fc chimera, mix put on CHO-K1.CD70 cells, bound CD27-Fc detected with anti-human Ig-HRP; blocked ligand: hCD70 on the cells.
The target of experiment [5] is T1, recombinant soluble hCD27-Fc fusion protein (rhCD27/Fc chimera, R&D systems cat. no. 382-CD) (human, UniProt P26842 21-192).
T1 construct: Bought reagent; Fc part of the bought chimera not given
T1 sequence (looked up): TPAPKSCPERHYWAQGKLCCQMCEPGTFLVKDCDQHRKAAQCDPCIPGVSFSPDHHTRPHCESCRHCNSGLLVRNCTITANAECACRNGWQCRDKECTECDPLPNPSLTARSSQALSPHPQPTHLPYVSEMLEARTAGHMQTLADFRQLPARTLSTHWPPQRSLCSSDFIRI
Nature of the experiment: competition cell ELISA: rhCD27-Fc (0.5 ug/ml) preincubated with antibody, binding to CHO-K1.CD70 cells. As for the experimental part: Blocking properties of the purified antibodies were studied using two competition assays. The CHO-K1.CD70 assay works along the following principles: CHO-K1.CD70 cells were seeded in a 96 well plate at a density of 40,000 cells/well. The same amount of plates was blocked by adding 300 μl medium/well, and all plates were incubated overnight at 37° C. The following day, the medium-only containing plates were emptied by flicking the plate, and 50 μl/well rhCD27-Fc chimera (0.5 μg/ml) (R&D systems cat. no. 382-CD) was added. To these plates, 50 μl of different dilutions of purified hCD27.15 antibodies were added. After 1 hour incubation at room temperature, the 100 μl rhCD27Fc/antibody mix was transferred to the CHO-K1/CD70 plate(s) from which the medium had been removed. These plate(s) were incubated for 1 hour at room temperature and then washed 3 times with PB ST. 100 μl anti-human Ig (H+L)-HRP conjugate (1:2,500) was added to every well (Promega, cat. no. W4031) and the plates were incubated for 1 hour at 37° C. After 6 final washes with PBST TMB Stabilized Chromagen (Invitrogen, cat. no. SB02) (100 μl/well) was added and the ELISA was read out as outlined above. […] Calculated IC₅₀ values of hCD27.15 and the positive control 1A4, which represent the concentration at which half of the inhibition is observed, are presented in Table 1.

In experiment [6] the target is T2, human CD27, full length, expressed on cells (CHO-K1.CD27, MCF-7, HEK293T, human T cells) (human, UniProt P26842 20-260).
T2 construct: whole, on cells; Full length cDNA of hCD27 in pCI-neo (CHO-K1), a retroviral vector (MCF-7) or pcDNA3 (HEK293T); Also stands for native CD27 on human T cells in the functional rows; also called hCD27; CHO-K1.hCD27
T2 sequence (looked up): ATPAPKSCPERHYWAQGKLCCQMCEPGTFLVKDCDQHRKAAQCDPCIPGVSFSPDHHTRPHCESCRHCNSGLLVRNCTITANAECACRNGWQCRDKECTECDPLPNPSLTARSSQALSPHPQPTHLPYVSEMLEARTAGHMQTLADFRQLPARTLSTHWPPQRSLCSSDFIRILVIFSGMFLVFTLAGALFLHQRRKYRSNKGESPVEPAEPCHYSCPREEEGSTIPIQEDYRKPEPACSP
Briefly: competition cell ELISA on CHO-K1.CD27 cells; competitor recombinant CD70 fusion protein (0.5 ug/ml). As for the experimental part: The CHO-K1.CD27 assay works along the following principles: CHO-K1.CD27 cells were seeded (40,000 cells/well) in a 96-well plate and incubated overnight at 37° C. After medium removal, 50 μl recombinant mouse CD70 fusion Protein (Fc-mCD70) (0.5 μg/ml) and 50 μl of different dilutions of purified anti-hCD27 antibodies were added. […] A cDNA construct encoding this fusion protein was constructed as described by Rowley and Al-Shamkhani, 2004, J Immunol 15:172:6039-46 and used to produce Fc-mCD70 protein in 293T human embryonic kidney cells. The protein was purified by affinity chromatography on Protein A Sepharose (GE Health Care).

Experiment [7] concerns the target T3, mouse CD27, full length, expressed on retrovirally transduced MCF-7 cells (mouse, UniProt P41272 24-250).
T3 construct: whole, on cells
T3 sequence (looked up): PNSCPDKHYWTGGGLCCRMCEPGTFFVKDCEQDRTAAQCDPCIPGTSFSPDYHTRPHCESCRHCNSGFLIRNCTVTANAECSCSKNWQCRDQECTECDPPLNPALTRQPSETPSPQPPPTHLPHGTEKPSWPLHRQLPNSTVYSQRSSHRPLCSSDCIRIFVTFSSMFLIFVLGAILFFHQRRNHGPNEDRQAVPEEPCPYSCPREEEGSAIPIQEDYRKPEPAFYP
Nature of the experiment: flow cytometry on MCF-7 cells transduced with mouse CD27. On the procedure:
Binding of hCD27 antibodies to mouse CD27 was determined using MCF-7 breast carcinoma cells that had been retrovirally transduced to stably express the full length cDNA encoding human CD27 or mouse CD27. Empty vector-transduced cells served as a control. Binding of the antibodies was tested by flow cytometric analysis, with validated agonistic anti-hCD27 antibodies 1A4 and CLB CD27/1; and anti-mouse CD27 LG.3A10 (Gravestein et al., 1995, Int Immunol. 7:551-7) as positive controls. These commercially available anti-hCD27 antibodies, which have been reported to harbor agonistic activities, were obtained as described in Table 2.
In general terms: A flow cytometer gives signals particle by particle.

Experiment [8] addresses T2, human CD27, full length, expressed on …. Briefly: cell ELISA on CHO-K1.hCD27 cells. As for the experimental part:
Cell-based ELISA experiments using purified hCD27 antibodies were performed to determine binding activities of hCD27 to cellularly expressed hCD27. In this cell-ELISA, all incubation steps were followed by a wash step with PEST (PBS with 0.01% Tween 20). CHO-K1.hCD27 cells were seeded (40,000 cells/well) in tissue culture plates and incubated overnight at 37° C. The next day, culture medium was removed and cells were incubated for one hour with (dilutions of) purified antibodies at 37° C. Next, cells were washed with PBST and incubated for one hour at 37° C. with 1:1,000 goat-anti-mouse IgG-HRP (Southern Biotechnology, # 1030-05). Subsequently, cells were washed 6 times with PBST and anti-hCD27 immunoreactivity was visualized with 100 μl TMB Stabilized Chromagen (Invitrogen, cat. no. SB02). Reactions were stopped with 100 μl 0.5 M […] and absorbances were read at […] and 620 nm. […] Calculated EC₅₀, representing the concentration at which 50% of the total binding signal is observed are represented in Table 1.

The target of experiment [9] is T1, recombinant soluble hCD27-Fc fusion …. Nature of the experiment: SPR (Biacore 2000), antibody amine-coupled to chip, rhCD27Fc chimera as analyte, 1:1 Langmuir fit. On the procedure: The binding properties of hCD27.15 antibodies were characterized in more detail using label-free surface plasma resonance using Biacore 2000 equipment. Low amounts of antibodies were coupled to a CMS sensor chip using amine coupling at pH=4.5, with Rₘₐₓ not exceeding 100 RU. This will, in combination with a high flow level (30 μl/min) yield good fits to the 1:1 Langmuir binding model. A concentration series of rhCD27Fc chimera, ranging from 0.016 nM to 1 nM, was injected for 1 minute at 30 μl/min. The dissociation was monitored for 5 minutes. The running buffer is HEPES-buffered saline with 3 mM EDTA and 0.005% P20 (HBS-EP), pH 7.4. Combination plots were made by subtraction of the signal obtained at the blank flow cell, using BIAeval 3.2. The sensor grams were fitted to a 1:1 Langmuir binding model.

The term IC50 denotes the concentration at which inhibition is half-maximal. What is called EC50 is the concentration needed to bring the measured effect to its halfway point. With “anti-hCD27, clone 1A4 (Beckman Coulter, cat. no. IM2034) (antibody)”, the IC50 in [1] was 0.0937 µg/mL; in [2], 0.37 µg/mL. The molecule further had an EC50 in [3] of 0.033 µg/mL.
Turning to “anti-hCD27, clone 57703 (R&D systems, cat. no. MAB382) (antibody)”, the IC50 (read off the curve) in experiment [4] worked out at 0.2 µg/mL.

B1: monoclonal antibody hCD27.15 (hybridoma hCD27.15, ATCC PTA-11008) (antibody, mouse IgG1, V domains shown)
VH: EVRLQQSGADLVKPGASVKLSCTASGFIIKATYMHWVRQRPEQGLEWIGRIDPANGETKYDPKFQVKATITADTSSSTAYLQLNSLTSDDTAVYYCARYAWYFDVWGAGTTVTVSS
VL: DIQMTQSPASLSASVGDTVTITCRASENIYSFLAWYHQKQGRSPQLLVYHAKTLAEGVPSRFSGSGSGTQFSLKINSLQAEDFGSYYCQHYYGSPLTFGAGTKLEVK
notes: Mouse antibody purified from hybridoma; VH is joined to a mouse IgG1 constant region and VL to the kappa constant region; also called hCD27.15 mAb; anti-hCD27 antibody hCD27.15
As a reminder, the Kd is the concentration at which binding is half-saturated. As for B1, the IC50 was found to be 1.55 µg/mL in experiment [5] and 0.864 µg/mL in [6]. Moreover, the binding result in experiment [7] is listed as “no binding”. The same molecule yielded an EC50 in experiment [8] of 0.686 µg/mL. In experiment [9], the Kd turned out to be 122 nM.
